Assay [1] has as its target T1, recombinant N-terminal extracellular domain of the human PTH1R receptor (human, UniProt Q03431 27-188, limits assumed).
T1 construct: domain: N-terminal extracellular domain; Bought reagent; also called N-ECD PTH1R; PTH1R N-terminal ECD
T1 sequence (looked up): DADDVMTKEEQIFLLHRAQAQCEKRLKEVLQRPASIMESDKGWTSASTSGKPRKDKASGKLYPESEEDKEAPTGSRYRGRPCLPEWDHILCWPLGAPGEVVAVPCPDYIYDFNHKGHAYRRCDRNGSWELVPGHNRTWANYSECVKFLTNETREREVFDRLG
Kind of assay: SPR, IgG captured, ECD injected. The essentials: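 Antibodies (0.5 μg/mL) captured on anti-human IgG-Fc chip to 100–200 RU in HBS-EP+ with 2.5 mg/mL BSA; receptor ECD injected at 30 μL/minute for 240 s, 360 s dissociation, 3M MgCl regeneration. Double-referenced data fit globally for ka and kd; KD=kd/kₐ.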
(In general: SPR reads the build-up and loss of mass on a sensor chip optically.)

Assay [2] has as its target T2, mouse PTH1R overexpressed on CHO cells (mouse, UniProt P41593 27-591).
T2 sequence (looked up): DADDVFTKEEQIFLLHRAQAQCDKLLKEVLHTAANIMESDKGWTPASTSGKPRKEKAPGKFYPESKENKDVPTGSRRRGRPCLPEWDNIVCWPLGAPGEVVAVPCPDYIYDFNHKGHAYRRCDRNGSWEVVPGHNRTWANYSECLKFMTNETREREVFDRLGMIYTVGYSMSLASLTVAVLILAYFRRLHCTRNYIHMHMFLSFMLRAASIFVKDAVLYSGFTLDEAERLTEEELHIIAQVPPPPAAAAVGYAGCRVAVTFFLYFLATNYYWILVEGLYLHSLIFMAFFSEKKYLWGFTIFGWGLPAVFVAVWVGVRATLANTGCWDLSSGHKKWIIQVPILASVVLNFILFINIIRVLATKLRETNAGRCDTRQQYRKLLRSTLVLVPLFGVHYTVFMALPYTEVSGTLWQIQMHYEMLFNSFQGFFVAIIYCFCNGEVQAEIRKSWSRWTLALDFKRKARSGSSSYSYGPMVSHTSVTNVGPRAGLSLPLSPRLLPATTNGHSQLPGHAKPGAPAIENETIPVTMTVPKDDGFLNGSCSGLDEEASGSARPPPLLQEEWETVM
Kind of assay: cell-based or functional assay.

Assay [3] deals with T3, human PTH1R overexpressed on CHO cells (human, UniProt Q03431 27-593).
T3 construct: whole, on cells; also called CHO human PTH1R; CHO Human PTHR
T3 sequence (looked up): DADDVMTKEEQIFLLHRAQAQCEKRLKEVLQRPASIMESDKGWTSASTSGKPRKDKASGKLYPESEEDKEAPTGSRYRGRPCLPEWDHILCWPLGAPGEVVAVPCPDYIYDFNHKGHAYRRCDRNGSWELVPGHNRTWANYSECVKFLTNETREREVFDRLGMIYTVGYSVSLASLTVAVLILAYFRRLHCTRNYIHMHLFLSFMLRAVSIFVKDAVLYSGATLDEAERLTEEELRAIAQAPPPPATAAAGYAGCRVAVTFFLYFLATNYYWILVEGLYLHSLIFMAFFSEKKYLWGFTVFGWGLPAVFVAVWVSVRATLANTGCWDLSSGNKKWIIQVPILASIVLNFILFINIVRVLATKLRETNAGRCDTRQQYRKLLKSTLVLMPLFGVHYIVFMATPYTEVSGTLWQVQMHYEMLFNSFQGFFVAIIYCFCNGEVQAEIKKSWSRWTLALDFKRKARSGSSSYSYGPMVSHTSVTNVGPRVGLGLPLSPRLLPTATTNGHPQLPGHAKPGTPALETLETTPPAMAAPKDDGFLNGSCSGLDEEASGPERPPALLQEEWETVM
Kind of assay: flow cytometry on CHO cells, 24 hr at 4 C. Here is the method: (§1) To characterize antibody binding to PTH1R, cells were labeled with either CellTrace™ CFSE or CellTrace™ Violet. Unlabeled CHOK1 parent, CHO human PTH1R labeled with CellTrace™CFSE, and CHO mouse PTH1R labeled with CellTrace™Violet were pooled together and stained with increasing concentrations of antibody. Antibodies were incubated for 24 hr at 4° C. followed by two washes with FACS Buffer (0.5% BSA, 0.1% NaN3 in DPBS). Cells were then incubated with Allophycocyanin (APC) AffiniPure F(ab′)₂ Fragment Goat Anti-Human IgG (H+L) (Jackson ImmunoResearch, West Grove, Pa.) for 20 minutes at 4° C. Followed by two washes, cells were resuspended in FACS Buffer. Samples were acquired using BD Cytometer (BD Biosciences, San Jose, Calif.) and data were analyzed using FlowJo (FlowJo, LLC, Ashland, Oreg.) and Prism (GraphPad Software, La Jolla, Calif.).
On the technique in general: A flow cytometer gives signals particle by particle.

In assay [4] the target is T2, mouse PTH1R overexpressed on CHO cells. The experiment in a line: flow cytometry on CHO cells, 24 hr at 4 C. Here is the method:
as §1

Assay [5] concerns the target T3, human PTH1R overexpressed on CHO cells. Kind of assay: flow cytometry on CHO cells, with 1 uM PTH as competitor. Here is the method: as §1
The target in assay [6] is T2, mouse PTH1R overexpressed on CHO cells. The assay is described as above. Here is the method:
as §1

4 molecules from patent publication US20200317817A1 (XOMA US, published 2020) can be followed below.

B1: XPA.85.329 (antibody, V domains shown)
VH: QMQLVQSGAEVKKPGSSVKVSCKASGGTFSSYAISWVRQAPGQGLEWMGGIIPIFGTANYAQKFQGRVTITADESTSTAYMELSSLRSEDTAVYYCARGYVVARLWGQGTLVTVSS
VL: DIVMTQTPLSLSVTPGQPASISCKSSQSLLHIDGLTYLYWYLQKPGQPPQLLIYEVSHRFSGVSDKFSGSGSGTDFTLTISRVEAEDVGVYYCMQSLHLPITFGQGTRLEIK
notes: IgG; also called Ab329; XPA.329
Consider B1, for which, in assay [1], the Kd amounted to 0.22 nM, the koff is 7.6e-05 s⁻¹ and the kon was determined as 340000 M⁻¹ s⁻¹.

B2: XPA.85.341 (antibody, V domains shown)
VH: EVQLVETGGGVVRPGGSLRLSCAASGFTFSSSAMSWVRQTPGKELQWVSAITPGGEGTYYADVVKGRFTISRDNSKDTLYLQMDSLRAEDTAVYYCARDLYGSYGDAFDIWGQGTLVTVSS
VL: SYELTQPSSVSVSPGQTASITCSGDKLGEKYASWYQQKPGQSPVLVMFEDTKRPSGIPERFSGSNSGNTATLTISGTQAEDEADYYCQAWDSSWVFGGGTQLTVL
notes: Light-chain-shuffled variant of XPA.85.017
B2: in assay [2], the “EC50 of PTH(1-34), cAMP assay, with 267 nM IgG” value (from here on “EC50 of PTH(1-34), cAMP assay”) stood at 2.15 nM. For the same molecule, the Kd in assay [1] worked out at 0.31 nM. Besides, in assay [1], the koff worked out at 0.0006 s⁻¹. For the same molecule, the kon in assay [1] was 1.9e+06 M⁻¹ s⁻¹. In addition, the EC50 came out at 0.202 nM in assay [3], 0.343 nM in assay [4], 5.39 nM in assay [5] and 0.778 nM in assay [6].

B3: XPA.85.287 (antibody, V domains shown)
VH: B2 VH
VL: SYVLTQPPSVSVAPGQTARITCSGDKLGDRYVSWYQQKPGQSPVLVMFEDTGRPAGIPERFSGSNSGNTATLTISGTQAEDEADYYCQAWGTSWVFGGGTQLTVL
notes: also called Ab287
As to B3, in assay [2], the “EC50 of PTH(1-34), cAMP assay” value was determined as 13.6 nM; the “EC50 of PTHrP(1-34), cAMP assay, with 267 nM IgG” value amounted to 5.77 nM; the “fold-shift in PTH(1-34) EC50 vs vehicle only, cAMP assay” value was over 100 fold; the “fold-shift in PTHrP(1-34) EC50 vs vehicle only, cAMP assay” value was over 100 fold. Further, in assay [1], the Kd came out at 0.099 nM, the koff worked out at 0.00036 s⁻¹ and the kon was determined as 3.6e+06 M⁻¹ s⁻¹. Also, the EC50 in assay [3] is 0.044 nM. In assay [4], this molecule showed an EC50 of 0.216 nM. The EC50 in assay [5] was found to be 1.86 nM. A half-maximal effect in assay [6] (EC50) was put at 0.206 nM.

B4: XPA.85.339 (antibody, V domains shown)
VH: B2 VH
VL: SYELTQPPSVSVAPGQTATITCSGDRLGDKFISWYQQKPGQSPLLVIFEDNERPSRIPERFSGSNSGNSATLTISGTQAVDEADYYCQAWDSSWVFGGGTQLTVL
notes: as for B2
As for B4, in assay [2], the “EC50 of PTH(1-34), cAMP assay” value came to 1.95 nM. In addition, the Kd in assay [1] was 0.22 nM. For the same molecule, the koff in assay [1] came out at 0.00065 s⁻¹. For the same molecule, in assay [1], the kon is 2.9e+06 M⁻¹ s⁻¹. Also, the EC50 in assay [3] stood at 0.142 nM; in assay [4], 0.234 nM; in assay [5], 2.98 nM; in assay [6], 0.327 nM.

Usually Kd stands for a measure of binding affinity in units of concentration. The koff is the first-order rate constant of dissociation. What is called kon is the second-order rate constant of association. Usually EC50 stands for the midpoint of the concentration-response curve. Read a high EC50 as weaker potency.
